The test has as its target T1, Mycobacterium tuberculosis thiosulfate-sulfurtransferase SseA (Mycobacterium tuberculosis, UniProt P9WHF7 1-297).
T1 sequence: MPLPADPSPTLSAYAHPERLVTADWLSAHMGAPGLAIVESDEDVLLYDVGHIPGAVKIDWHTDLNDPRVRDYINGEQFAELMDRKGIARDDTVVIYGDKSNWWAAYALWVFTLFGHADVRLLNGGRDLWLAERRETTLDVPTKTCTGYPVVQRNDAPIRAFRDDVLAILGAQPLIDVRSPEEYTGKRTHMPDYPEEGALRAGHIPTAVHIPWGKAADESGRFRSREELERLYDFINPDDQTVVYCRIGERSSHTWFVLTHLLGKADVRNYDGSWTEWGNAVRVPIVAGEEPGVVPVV
Kind of test: ITC. (In ITC the heat of successive injections is recorded.)

In general, Kd refers to the constant that tells how readily two partners part at equilibrium. Low readings indicate a tighter complex, high ones a looser complex. The term stoichiometry N denotes the number of molecules, sites or subunits per partner or assembly.

B1: SufEMtb (Rv3284), SufE-like protein of Mycobacterium tuberculosis (natural protein)
chain: MTAPASLPAPLAEVVSDFAEVQGQDKLRLLLEFANELPALPSHLAESAMEPVPECQSPLFLHVDASDPNRVRLHFSAPAEAPTTRGFASILAAGLDEQPAADILAVPEDFYTELGLAALISPLRLRGMSAMLARIKRRLREAD
On to B1, for which binding was put at a Kd of 3.3 µM, the dH is -11.6 kcal/mol and the “stoichiometry N” value amounted to 1.

(Values after doi:10.1101/2025.02.04.636439 (bioRxiv, 2025).)
